Measured values as given in paper PMC8103725 (FASEB BioAdvances, 2021).

B1: His6-EGFP-KRIT1 (WT) FERM domain (417–736) (domain or fragment, human, UniProt O00522 417-736, looked up)
chain: KPYEKVRIYRMDGSYRSVELKHGNNTTVQQIMEGMRLSQETQQYFTIWICSENLSLQLKPYHKPLQHVRDWPEILAELTNLDPQRETPQLFLRRDVRLPLEVEKQIEDPLAILILFDEARYNLLKGFYTAPDAKLITLASLLLQIVYGNYESKKHKQGFLNEENLKSIVPVTKLKSKAPHWTNRILHEYKNLSTSEGVSKEMHHLQRMFLQNCWEIPTYGAAFFTGQIFTKASPSNHKVIPVYVGVNIKGLHLLNMETKALLISLKYGCFMWQLGDTDTCFQIHSMENKMSFIVHTKQAGLVVKLLMKLNGQLMPTERNS
B2: biotinylated HEG1 cytoplasmic tail (a.a. 1274–1381) (domain or fragment, UniProt Q9ULI3 1274-1381, looked up)
chain: RKNKNDISKLIFKSGDFQMSPYAEYPKNPRSQEWGREAIEMHENGSTKNLLQMTDVYYSPTSVRNPELERNGLYPAYTGLPGSRHSCIFPGQYNPSFISDESRRRDYF
modifications: biotin on the in vivo biotinylation peptide tag

How the values were obtained:
[1] = biological target: B2; assay: flow cytometry on beads
[2] = biological target: B1; assay: flow cytometry on beads

EC50 [1] | binding result [2] | Binder
32.4 nM |  | B1
 | binds | B2
